Holding throughout (assay): radioligand displacement (125I-[Leu8,D-Trp22,Tyr25]SRIF-28), membrane pellet sections
(In general: Loss of bound radioactivity is the signal in a displacement assay; it reports binding, not function.)

The target in assay [1] is T1, cloned human SRIF receptor SSTR3 (human, UniProt P32745 1-418).
T1 construct: whole, on cells; assayed as cryostat sections of membrane pellets of the transfected cells; also called hSSTR3
The protocol:
(§1) Cells are washed twice with and scraped into ice-cold 0.05 M Tris-HCl (pH 7.4), collected by centrifugation, and homogenized using a rotor/stator/system in the same buffer. After centrifugation at 120 g for 5 min at 4° C., the supernatant is collected and centrifuged again at 48,000 g for 30 min at 4° C. The resulting pellet is resuspended in ice-cold Tris buffer, transferred into a microfuge tube, and centrifuged at 20,000 g for 15 min at 4° C. After withdrawal of the supernatant, the membrane pellet is stored at −80° C.
(§2) Receptor autoradiography is performed on 20 μm thick cryostat sections of the membrane pellets, mounted on microscope slides, and then stored at −20° C. […] Increasing concentrations of the unlabeled peptide are used ranging from 0.1-1000 nM. Unlabeled somatostatin-28 is run in parallel using the same increasing concentrations, as a control. IC₅₀ values are calculated after quantification of the data using a computer-assisted image processing system as known in this art.

Assay [2] addresses T2, cloned human SRIF receptor SSTR2 (human, UniProt P30874 1-369).
T2 construct: whole, on cells; assayed as cryostat sections of membrane pellets of the transfected cells; also called hSSTR2
The method, then: as §1, §2

For assay [3], the target named is T3, cloned human SRIF receptor SSTR5 (human, UniProt P35346 1-364).
T3 construct: whole, on cells; assayed as cryostat sections of membrane pellets of the transfected cells; also called hSSTR5
The method, then: as §1, §2

Assay [4] addresses T4, cloned human SRIF receptor SSTR4 (human, UniProt P31391 1-388).
T4 construct: whole, on cells; assayed as cryostat sections of membrane pellets of the transfected cells; also called hSSTR4
The method, then: as §1, §2

The target of assay [5] is T5, cloned human SRIF receptor SSTR1 (human, UniProt P30872 1-391).
T5 construct: whole, on cells; also called hSSTR1
The protocol: as §1, §2

The text below walks through data of patent publication US20050245438A1 (SALK INSTITUTE FOR BIOLOGICAL STUDIES, published 2005).

Bridge positions count the residues as written; N and C are the ends. Square brackets hold non-standard residues; d marks the D form. * marks the point of attachment. d2Nal(3S-Me) = C[C@@H](c1ccc2ccccc2c1)[C@@H](N)C(=O)O; Phe(4-NH2) = Nc1ccc(C[C@H](N)C(=O)O)cc1; Carbamoyl = NC(=O)*

T2 sequence (P30874 whole entry): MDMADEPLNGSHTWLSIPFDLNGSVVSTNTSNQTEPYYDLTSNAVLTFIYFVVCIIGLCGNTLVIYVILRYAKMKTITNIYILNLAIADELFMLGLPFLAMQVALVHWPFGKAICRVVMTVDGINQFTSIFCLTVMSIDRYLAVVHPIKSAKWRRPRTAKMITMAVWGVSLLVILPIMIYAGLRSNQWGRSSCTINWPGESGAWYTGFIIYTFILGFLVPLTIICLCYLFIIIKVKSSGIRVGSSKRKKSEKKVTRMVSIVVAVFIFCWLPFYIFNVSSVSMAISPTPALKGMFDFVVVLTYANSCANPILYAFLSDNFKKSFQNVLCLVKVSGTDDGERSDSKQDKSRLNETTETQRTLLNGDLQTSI
T4 sequence (P31391 whole entry): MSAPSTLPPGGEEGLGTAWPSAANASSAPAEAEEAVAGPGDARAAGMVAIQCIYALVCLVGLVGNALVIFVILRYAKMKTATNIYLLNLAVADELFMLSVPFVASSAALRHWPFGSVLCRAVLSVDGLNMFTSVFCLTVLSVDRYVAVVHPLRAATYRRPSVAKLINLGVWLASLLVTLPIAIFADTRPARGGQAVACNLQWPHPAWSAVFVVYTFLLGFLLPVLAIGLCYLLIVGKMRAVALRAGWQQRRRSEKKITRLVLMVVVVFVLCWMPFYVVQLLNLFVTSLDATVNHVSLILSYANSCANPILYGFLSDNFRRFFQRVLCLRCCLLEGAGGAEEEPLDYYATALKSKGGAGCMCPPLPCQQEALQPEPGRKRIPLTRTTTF
T3 sequence (P35346 whole entry): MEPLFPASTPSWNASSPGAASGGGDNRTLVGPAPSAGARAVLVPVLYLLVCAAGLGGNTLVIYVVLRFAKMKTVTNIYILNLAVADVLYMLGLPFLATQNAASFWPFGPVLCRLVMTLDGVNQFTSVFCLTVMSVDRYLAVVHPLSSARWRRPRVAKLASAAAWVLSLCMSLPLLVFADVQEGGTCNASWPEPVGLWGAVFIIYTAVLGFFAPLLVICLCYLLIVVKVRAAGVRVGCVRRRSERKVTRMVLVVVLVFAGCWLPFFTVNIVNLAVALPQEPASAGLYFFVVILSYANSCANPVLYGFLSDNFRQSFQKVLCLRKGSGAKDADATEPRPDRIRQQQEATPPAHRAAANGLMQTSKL
T1 sequence (P32745 whole entry): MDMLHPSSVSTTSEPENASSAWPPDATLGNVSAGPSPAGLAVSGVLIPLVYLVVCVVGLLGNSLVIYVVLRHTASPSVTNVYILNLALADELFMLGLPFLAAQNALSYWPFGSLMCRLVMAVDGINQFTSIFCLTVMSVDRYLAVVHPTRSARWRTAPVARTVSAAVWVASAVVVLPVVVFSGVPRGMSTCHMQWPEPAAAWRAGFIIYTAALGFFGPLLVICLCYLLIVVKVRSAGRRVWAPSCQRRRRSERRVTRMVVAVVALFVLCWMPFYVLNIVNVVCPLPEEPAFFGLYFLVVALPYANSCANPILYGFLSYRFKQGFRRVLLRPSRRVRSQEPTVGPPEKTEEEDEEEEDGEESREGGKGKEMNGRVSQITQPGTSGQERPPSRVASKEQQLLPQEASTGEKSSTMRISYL
T5 sequence (P30872 whole entry): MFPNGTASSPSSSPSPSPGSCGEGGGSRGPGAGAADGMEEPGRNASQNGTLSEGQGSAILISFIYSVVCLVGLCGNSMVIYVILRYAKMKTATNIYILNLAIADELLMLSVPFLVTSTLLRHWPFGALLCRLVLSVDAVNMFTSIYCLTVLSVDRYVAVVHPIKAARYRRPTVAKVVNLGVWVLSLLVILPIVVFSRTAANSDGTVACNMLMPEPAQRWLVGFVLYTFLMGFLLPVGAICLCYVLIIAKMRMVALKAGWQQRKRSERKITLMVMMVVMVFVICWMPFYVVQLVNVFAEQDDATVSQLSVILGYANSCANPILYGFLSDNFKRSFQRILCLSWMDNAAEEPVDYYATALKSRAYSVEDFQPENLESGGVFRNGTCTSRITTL

B1: (cyclo)Cbm-Cys-Phe-4Aph-D-Trp-Lys-Thr-Phe-Cys-OH (peptide)
peptide: Carbamoyl-CF[Phe(4-NH2)][dW]KTFC-OH
modifications: disulfide 1-8
SMILES: C[C@@H](O)[C@@H]1NC(=O)[C@H](CCCCN)NC(=O)[C@@H](Cc2c[nH]c3ccccc23)NC(=O)[C@H](Cc2ccc(N)cc2)NC(=O)[C@H](Cc2ccccc2)NC(=O)[C@@H](NC(N)=O)CSSC[C@@H](C(=O)O)NC(=O)[C@H](Cc2ccccc2)NC1=O
notes: synthetic cyclic octapeptide; also called Peptide No. 4
With B1, the IC50 was determined as 650 nM in assay [1]; 120 nM in assay [2]; 103 nM in assay [3]; 1.1 nM in assay [4]; 840 nM in assay [5].

B2: (cyclo)H-Cys-Phe-Tyr-threo-(2R,3S)C^βMe-2Nal-Lys-Thr-Phe-Cys-OH (peptide)
peptide: H-CFY[d2Nal(3S-Me)]KTFC-OH
modifications: disulfide 1-8
SMILES: C[C@@H](O)[C@@H]1NC(=O)[C@H](CCCCN)NC(=O)[C@@H]([C@@H](C)c2ccc3ccccc3c2)NC(=O)[C@H](Cc2ccc(O)cc2)NC(=O)[C@H](Cc2ccccc2)NC(=O)[C@@H](N)CSSC[C@@H](C(=O)O)NC(=O)[C@H](Cc2ccccc2)NC1=O
notes: also called Peptide No. 17
On to B2, for which the IC50 stood at 18 nM in assay [1]; 30 nM in assay [2]; 18 nM in assay [3]; 2.3 nM in assay [4]; 410 nM in assay [5].

B3: (cyclo)H-D-Cys-Phe-Tyr-threo-(2R,3S)C^βMe-2Nal-Lys-Thr-Phe-Cys-OH (peptide)
peptide: H-[dC]FY[d2Nal(3S-Me)]KTFC-OH
modifications: disulfide 1-8
notes: also called Peptide No. 16
Take B3: the IC50 in assay [1] was 14 nM; in assay [2] it was 12 nM; in assay [3], 27 nM; in assay [4], 0.55 nM; in assay [5], 545 nM.

A word on the IC50: it is the point on the concentration scale where inhibition reaches its midpoint.
